B1: Transcription cofactor vestigial-like protein 1 (Mus musculus), Q99NC0 (parent)
chain: MEEMKKNGVWIPESSQKPVKTEWNAGSVIFTYFEGDINSMVDEHFSRALRNLKRPHKCSSSSHSDNLTLKNGVNKTRTDTSHTDRERKVESSQTENSGELKDVPVEEKGTNKSMPPNQRHLSSWTIAQPAASPENGARSSSLDEYGLKAMDQHSLSMPKTPSALPLEPWHFSSLARPGFIAPAYFPVFPDRHLTPEVYRVFPDRHLTPEVYHVFPDRHLTPEVYPDGRCGPLQHLVQQDRYQNHPLEPAARENCSPAKIAGSTGSLMNLPPYPVHYKKKICARGAASASLDDERSPSPKRRRDAYYY

The variants in the assay derive from B1. Conditions: with Tead4, Q62296-1.
Tead4, Q62296-1, sequence (Q62296 whole entry): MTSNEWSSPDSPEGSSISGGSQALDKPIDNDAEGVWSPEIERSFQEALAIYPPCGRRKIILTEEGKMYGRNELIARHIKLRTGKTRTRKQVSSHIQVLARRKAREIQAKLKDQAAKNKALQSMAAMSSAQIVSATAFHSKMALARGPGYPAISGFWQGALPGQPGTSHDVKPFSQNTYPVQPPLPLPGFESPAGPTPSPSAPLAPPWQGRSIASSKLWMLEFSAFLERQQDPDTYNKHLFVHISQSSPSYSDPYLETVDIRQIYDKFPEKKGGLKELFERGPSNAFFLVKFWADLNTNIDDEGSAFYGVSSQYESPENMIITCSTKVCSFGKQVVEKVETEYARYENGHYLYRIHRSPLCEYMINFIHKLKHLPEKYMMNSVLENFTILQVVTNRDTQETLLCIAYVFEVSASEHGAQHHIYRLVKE
On to MEEMKKNGVWIPESSQKPVKTEWNAGSVIFTYFEGDINSMVDEAASRALRNLKRPHKCSSSSHSDNLTLKNGVNKTRTDTSHTDRERKVESSQTENSGELKDVPVEEKGTNKSMPPNQRHLSSWTIAQPAASPENGARSSSLDEYGLKAMDQHSLSMPKTPSALPLEPWHFSSLARPGFIAPAYFPVFPDRHLTPEVYRVFPDRHLTPEVYHVFPDRHLTPEVYPDGRCGPLQHLVQQDRYQNHPLEPAARENCSPAKIAGSTGSLMNLPPYPVHYKKKICARGAASASLDDERSPSPKRRRDAYYY [H44A;F45A], for which the “effect of a mutation on the interaction” value is listed as “decreasing interaction strength”.
